Data on 12 variants can be found in the FLAb antibody collection (doi:10.7554/elife.23156).

What is called Kd is the concentration at which binding is half-saturated.

To fix the notation:
B1: scFv; the commonest letter at each place (parent)
chain 1: EVKLDETGGGLVQPGRPMKLSCVASGFTFSDYWMNWVRQSPEKGLEWVAQIRNKPYNYETYYSDSVKGRFTISRDDSKSSVYLQMNNLRVEDMGIYYCTGSYYGMDYWGQGTSVTVS
chain 2: DVVMTQTPLSLPVSLGDQASISCRSSQSLVHSNGNTYLRWYLQKPGQSPKVLIYKVSNRFSGVPDRFSGSGSGTDFTLKISRVEAEDLGVYFCSQSTHVPWTFGGGTKLEIK

Some results are limits rather than exact numbers.

In data set [1] the parent is B1. Description: Kd (Tite-Seq). The conditions noted are these: with fluorescein; format: scFv 4-4-20, heavy + light.
In data set [2] the parent is B1. Description: yeast surface expression (ratio to wild type); higher = more expressed. To be noted: format: scFv 4-4-20, heavy + light.

On to chain 1 EVKLDETGGGLVQPGRPMKLSCVASGFTFSDYWMNWVRQSPEKGLEWVAQIRNKPYNYETYYSDSVKGRFTISRDDSKSSVYLQMNNLRVEDMGIYYCTGSYLYMDYWGQGTSVTVS chain 2 DVVMTQTPLSLPVSLGDQASISCRSSQSLVHSNGNTYLRWYLQKPGQSPKVLIYKVSNRFSGVPDRFSGSGSGTDFTLKISRVEAEDLGVYFCSQSTHVPWTFGGGTKLEIK [chain 1 Y103L G104Y], for which, in data set [1], the Kd is not below 10 µM. For the same variant, the yeast surface expression in data set [2] worked out at 0.604.

With chain 1 EVKLDETGGGLVQPGRPMKLSCVASGFTFSDYWMNWVRQSPEKGLEWVAQIRNKPYNYETYYSDSVKGRFTISRDDSKSSVYLQMNNLRVEDMGIYYCTGSYLGMDYDGQGTSVTVS chain 2 DVVMTQTPLSLPVSLGDQASISCRSSQSLVHSNGNTYLRWYLQKPGQSPKVLIYKVSNRFSGVPDRFSGSGSGTDFTLKISRVEAEDLGVYFCSQSTHVPWTFGGGTKLEIK [chain 1 Y103L W108D], in data set [1], the Kd is not below 10 µM. For the same variant, the yeast surface expression in data set [2] was 0.501.

As for chain 1 EVKLDETGGGLVQPGRPMKLSCVASGFTFSDYWMNWVRQSPEKGLEWVAQIRNKPYNYETYYSDSVKGRFTISRDDSKSSVYLQMNNLRVEDMGIYYCTGSYMGMDYWGQGTSVTVS chain 2 DVVMTQTPLSLPVSLGDQASISCRSSQSLVHSNGNTYLRWYLQKPGQSPKVLIYKVSNRFSGVPDRFSGSGSGTDFTLKISRVEAEDLGVYFCSQSTHVPWTFGGGTKLEIK [chain 1 Y103M], in data set [1], the equilibrium dissociation constant (Kd) worked out at 0.0015 µM. In addition, the yeast surface expression in data set [2] came to 1.27.

Consider chain 1 EVKLDETGGGLVQPGRPMKLSCVASGFTFSDYWMNWVRQSPEKGLEWVAQIRNKPYNYETYYSDSVKGRFTISRDDSKSSVYLQMNNLRVEDMGIYYCTGSYLGMDYWIQGTSVTVS chain 2 DVVMTQTPLSLPVSLGDQASISCRSSQSLVHSNGNTYLRWYLQKPGQSPKVLIYKVSNRFSGVPDRFSGSGSGTDFTLKISRVEAEDLGVYFCSQSTHVPWTFGGGTKLEIK [chain 1 Y103L G109I], for which the Kd in data set [1] was not below 10 µM. Also, in data set [2], the yeast surface expression turned out to be 0.206.

In the case of chain 1 EVKLDETGGGLVQPGRPMKLSCVASGFTFSDYWMNWVRQSPEKGLEWVAQIRNKPYNYETYYSDSVKGRFTISRDDSKSSVYLQMNNLRVEDMGIYYCTGSYLGMDYWMQGTSVTVS chain 2 DVVMTQTPLSLPVSLGDQASISCRSSQSLVHSNGNTYLRWYLQKPGQSPKVLIYKVSNRFSGVPDRFSGSGSGTDFTLKISRVEAEDLGVYFCSQSTHVPWTFGGGTKLEIK [chain 1 Y103L G109M], the Kd in data set [1] is not below 10 µM. For the same variant, the yeast surface expression in data set [2] was determined as 0.208.

In the case of chain 1 EVKLDETGGGLVQPGRPMKLSCVASGFTFSDYWMNWVRQSPEKGLEWVAQIRNKPYNYETYYSDSVKGRFTISRDDSKSSVYLQMNNLRVEDMGIYYCTGSYLGMDYWSQGTSVTVS chain 2 DVVMTQTPLSLPVSLGDQASISCRSSQSLVHSNGNTYLRWYLQKPGQSPKVLIYKVSNRFSGVPDRFSGSGSGTDFTLKISRVEAEDLGVYFCSQSTHVPWTFGGGTKLEIK [chain 1 Y103L G109S], the dissociation constant (Kd) in data set [1] turned out to be 0.167 µM. Moreover, the yeast surface expression in data set [2] stood at 0.855.

Turning to chain 1 EVKLDETGGGLVQPGRPMKLSCVASGFTFSDYWMNWVRQSPEKGLEWVAQIRNKPYNYETYYSDSVKGRFTISRDDSKSSVYLQMNNLRVEDMGIYYCTGSYLGIDYWGQGTSVTVS chain 2 DVVMTQTPLSLPVSLGDQASISCRSSQSLVHSNGNTYLRWYLQKPGQSPKVLIYKVSNRFSGVPDRFSGSGSGTDFTLKISRVEAEDLGVYFCSQSTHVPWTFGGGTKLEIK [chain 1 Y103L M105I], the dissociation constant (Kd) in data set [1] was not below 10 µM. Moreover, the yeast surface expression in data set [2] is 0.741.

With chain 1 EVKLDETGGGLVQPGRPMKLSCVASGFTFSDYWMNWVRQSPEKGLEWVAQIRNKPYNYETYYSDSVKGRFTISRDDSKSSVYLQMNNLRVEDMGIYYCTGSYLGGDYWGQGTSVTVS chain 2 DVVMTQTPLSLPVSLGDQASISCRSSQSLVHSNGNTYLRWYLQKPGQSPKVLIYKVSNRFSGVPDRFSGSGSGTDFTLKISRVEAEDLGVYFCSQSTHVPWTFGGGTKLEIK [chain 1 Y103L M105G], the Kd in data set [1] is not below 10 µM. Besides, the yeast surface expression in data set [2] was determined as 1.02.

With chain 1 EVKLDETGGGLVQPGRPMKLSCVASGFTFSDYWMNWVRQSPEKGLEWVAQIRNKPYNYETYYSDSVKGRFTISRDDSKSSVYLQMNNLRVEDMGIYYCTGSYLGCDYWGQGTSVTVS chain 2 DVVMTQTPLSLPVSLGDQASISCRSSQSLVHSNGNTYLRWYLQKPGQSPKVLIYKVSNRFSGVPDRFSGSGSGTDFTLKISRVEAEDLGVYFCSQSTHVPWTFGGGTKLEIK [chain 1 Y103L M105C], in data set [1], the dissociation constant Kd was not below 10 µM. Moreover, the yeast surface expression in data set [2] worked out at 1.

Take chain 1 EVKLDETGGGLVQPGRPMKLSCVASGFTFSDYWMNWVRQSPEKGLEWVAQIRNKPYNYETYYSDSVKGRFTISRDDSKSSVYLQMNNLRVEDMGIYYCTGSYLGMDDWGQGTSVTVS chain 2 DVVMTQTPLSLPVSLGDQASISCRSSQSLVHSNGNTYLRWYLQKPGQSPKVLIYKVSNRFSGVPDRFSGSGSGTDFTLKISRVEAEDLGVYFCSQSTHVPWTFGGGTKLEIK [chain 1 Y103L Y107D]: the Kd in data set [1] is not below 10 µM. Moreover, in data set [2], the yeast surface expression is 0.471.

For the variant chain 1 EVKLDETGGGLVQPGRPMKLSCVASGFTFSDYWMNWVRQSPEKGLEWVAQIRNKPYNYETYYSDSVKGRFTISRDDSKSSVYLQMNNLRVEDMGIYYCTGSYLGMDSWGQGTSVTVS chain 2 DVVMTQTPLSLPVSLGDQASISCRSSQSLVHSNGNTYLRWYLQKPGQSPKVLIYKVSNRFSGVPDRFSGSGSGTDFTLKISRVEAEDLGVYFCSQSTHVPWTFGGGTKLEIK [chain 1 Y103L Y107S], the dissociation constant Kd in data set [1] was 0.55 µM. The yeast surface expression in data set [2] came out at 0.878.

For chain 1 EVKLDETGGGLVQPGRPMKLSCVASGFTFSDYWMNWVRQSPEKGLEWVAQIRNKPYNYETYYSDSVKGRFTISRDDSKSSVYLQMNNLRVEDMGIYYCTGSYLGMPYWGQGTSVTVS chain 2 DVVMTQTPLSLPVSLGDQASISCRSSQSLVHSNGNTYLRWYLQKPGQSPKVLIYKVSNRFSGVPDRFSGSGSGTDFTLKISRVEAEDLGVYFCSQSTHVPWTFGGGTKLEIK [chain 1 Y103L D106P], the dissociation constant (Kd) in data set [1] was not below 10 µM. In addition, the yeast surface expression in data set [2] stood at 0.559.
